Results on 30 sequences are retold here after the nanobody polyreactivity screen of Harvey et al. (2022).

This data set can be described thus: yeast display, Sf9 membrane polyspecificity reagent, FACS + sequencing; frameworks hold sequencing errors. The essentials:
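Genes from sorted yeast were amplified by colony PCR, read by MiSeq 2 × 250 sequencing and filtered on CDR length. These cells carried a synthetic nanobody library in Saccharomyces cerevisiae BJ5465 and were sorted by FACS into low and high (top ~1%) gates on anti-HA and streptavidin fluorescence. Polyreactivity is labelled according to the gate of origin.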
Consider “QVQLVESGGGLVQAGGSLRLSCAASGRNFALNAMGWYRQAPGKERELLATIRWRGGSTYYADSVKGRFTISRDNAKKTVYLQMNSLKPEDTAVYYCATGPRPYPYDYCGQGTQVTVSS”, for which the “polyreactivity (PSR sort gate)” value is “high polyreactivity”.

With “QVQLVESGGGIVQAGGSLRLSCAASGSIFSFYAMGWYRQAPGKERELVAAIDVSGGSTYYADSVKGRFTISRDNAKNSVYLQMNSLKPEDTAVYYCAKDVRDQYDYWGQGTQVTVSS”, the “polyreactivity (PSR sort gate)” value is “low polyreactivity”.

On to “QVQLVESGGGLVPAGGSLRLSCAASGSTFVSKAMGWYRQAPGKERELLAAISTSGGSTYNADSVKGRVTISGDNAKNTVYLQMNSLKPEDTAVYYCAKLLAGGFRIWQDYDYWGQGTQVTVSS”, for which the “polyreactivity (PSR sort gate)” value is listed as “low polyreactivity”.

Regarding “QVQLVESAGGLVQAGGSLRLSCAASGRIFVRYAKGRYREAPGKVRELVAAISSSGSSTYYADSVKRRFTISRDNASNTVYLQMNSLKPEDTAVYYCNAVPSVRWRYDYWGQGTQVTVSS”, the “polyreactivity (PSR sort gate)” value is on record as “high polyreactivity”.

For the sequence “QVQLVESGGGLVQAGGSRRLTCAASGSIFFYNAMGWYRQATGKERELVAAISSATSTYYADSVKGRFTISRDNAMISVYVHMNSLTEEDTAVYYCAADFSDGYFWYDYWGQGTQVTVSS”, the “polyreactivity (PSR sort gate)” value is on record as “high polyreactivity”.

On to “QVQLVESGGGLVQAGGSLRLSCAASGSTFFHYVMGWYRQAPGKEREVVAAIRWSGGRTRYADSVKRRFTISRDNAKITVYLQMNSLIPEDTAVFYCAAYRLSKPFYKYDYWGQGTQVTVSS”, for which the “polyreactivity (PSR sort gate)” value is recorded as “high polyreactivity”.

For the sequence “QVQLVESGGGVVQAGGSLRLSCAASGSIFYSYAMGWYRQAPGKERELVAAISSSGTSTYYADSVKGRFTISRDNAKNTVYLQMNSLKPEDTAVYYCAARFYGTSYYRYNYWGQGTQVTVSS”, the “polyreactivity (PSR sort gate)” value is reported as “high polyreactivity”.

Consider “QVQLVESGGGLVQAGGSLRLSCAASGSTFYKNAMGWYIQAPGKERELVAAISGSGGRTYYADSVKGRFTISRDTAKNTVYLQMNSLKPEDTAVYYCNAARAYYSLYYGLDYWGQGTQVTVSS”, for which the “polyreactivity (PSR sort gate)” value is listed as “high polyreactivity”.

Turning to “QVQLVESGGGLVQAGGSLRLSCAASGSIFTFYAMGWYRQAPGKERELVARITNVGNTNYADSVKGRFTISRDNAKNTVYLQMNSLKPEDTAVYYCAARWYWGWTRGDYWGQGTQVTVSS”, the “polyreactivity (PSR sort gate)” value is reported as “high polyreactivity”.

As to “QVQLVESGGGLVQAGGSLRLICAASGATFYFYAMGWYREAPGKERELVAAISKRGTSTYYADSVKWRFTISRDNAKNTVYLQLTSLKPEDTAVYFCAADAPRGYNYWGQGTQVTVSS”, the “polyreactivity (PSR sort gate)” value is listed as “high polyreactivity”.

Take “QVQLVESGGGLVQAGGSLRLSCAASGRTFWYYTMGWYRQAPGKERELVAAISSGGRTNYADSVKGRFTISRDNAKNTVYLQMNSLKPEDTAVYYCATSRYYKYVERDYWGQGTQVTVSS”: the “polyreactivity (PSR sort gate)” value is recorded as “high polyreactivity”.

Consider “QVQLVESGGGLVQAGGSLRLSCAASGSIFVGNAMGWYRQAPVKERELVADINVTGGTTYYADSVKGRFTISRDNAKNTVYLQMNSLKPEDTAVYYCAARQSIFYSWTGVEYYYWGQGTQVTVSS”, for which the “polyreactivity (PSR sort gate)” value is listed as “low polyreactivity”.

As to “QVQLVESGGGLVQAGGSLPLSCAASGRTFDSYTMGWYRQAPGKERELVAAIRSSGGRTYADSVKGRFTISRDNAKNTVYLQMNSLKPEDTAVYYCAAARSYWAKYYYWGQGTQVTVSS”, the “polyreactivity (PSR sort gate)” value is recorded as “high polyreactivity”.

Consider “QAQLQESGGGLVQADGSLRLCCAASGSIFQTIYMGWYRQAPGKERELVASIDIGANTDYAVSVKGRFTISRDNAKNSVYLQMHSLKPEDTAVYYCAARYSRGRLLVSRGNYWGQGTQVTVSS”, for which the “polyreactivity (PSR sort gate)” value is recorded as “high polyreactivity”.

For the sequence “QVQLVESGGGLVQAGGSLRLICAASGSTFSENTMGSYRPAPGKERELVAAISFSGASTYYADSVKGRFTISRDYAKKTVYLQLNSLKPEDTAVYYCRRFTSSPKLALGEYDYWGQGTQVTVSS”, the “polyreactivity (PSR sort gate)” value is on record as “low polyreactivity”.

Regarding “QVQLVESGGGLVQAGGSLRLSCAASGFTFWYYAMGWYRQAPGKEREMVAAISRSGTSTYYADSVKGRFTISRDNAKNTVYLQMNSLKPEDSAVYYCNVLRVKSITYLMDYWGQGTQVTVSS”, the “polyreactivity (PSR sort gate)” value is “high polyreactivity”.

Consider “QVQLVESGGGLVQAGGSLRLSCAASGITLKLYVMGWYRQAPGKERELVAAISRRGGSTYYADSVKGRFTISRDNAKNTVYLQMNSLKPEDTAVYYCAKDGTQYERQDPAYGYWGQGTQVTVSS”, for which the “polyreactivity (PSR sort gate)” value is “high polyreactivity”.

Take “QVQLVESGGGLVQAGGSLRLSCAASGRIFVYNAMGLYRQAPGKERELVAAISSTGSTNYADSVKGRFTISRDNAKNTVYLQMNSLKPEDTAVYYFAAVYYFYGYSGYYGQYDYWGQGTQVTVSS”: the “polyreactivity (PSR sort gate)” value is reported as “low polyreactivity”.

For the sequence “QVQLVESGGGLVQAGGSHRLSCAASGRIFSYNSMGWYRQAPGKERELVAAITSGGSTYYADSVKGRFTISRDNAKNTVYLQMNSLKPEDTAVYYCAVRSYYFVSRYTRTLYGFDYWGQGTQVTVSS”, the “polyreactivity (PSR sort gate)” value was “low polyreactivity”.

“QVQLVESGGGLVQAGGSLRFSCAASGSIIYFYAMGWYRQAPGKERELVATITSGGRTYYADSVKGRFTISRDTAKNTVYLQMNSLKPEDTAVYYCNRRPVSYRYSSYNYDYLGQGTQVTVSS”: the “polyreactivity (PSR sort gate)” value is given as “high polyreactivity”.

For “QVQLVESGGGLVQAGGSLRLSCAASGSIFGVYAMGWYRQAPGKESELVATITWRGGSTYYADSVKGRFTISRDNAKNTVYLQMNSLKPEDTSVYYCNARYKWGYYSRYDYWGQGTQVTVSS”, the “polyreactivity (PSR sort gate)” value is listed as “high polyreactivity”.

As for “QVQLVESGGGLVQAGGSLRLSCAASGRIFAAYAMGWYRQAPGKERELVAGISRGGRTYYADSVKGRFTISRDNAKNTVYLQMNSLKPEDTAVYYCAKRATGQYSITAYGYDYWGQGTQVTVSS”, the “polyreactivity (PSR sort gate)” value is listed as “low polyreactivity”.

As to “QVHLVESGGGLVQAGGSLRLSCAASGYIFTIYAMGWYRQAPGKERELVAAITSGGSTSYADSVKGRFTISRDNAKNTVYLQMNSLKPVDTAVYYCAAASVYAGLYYLWVYTGYDYWGQGTQVTVSS”, the “polyreactivity (PSR sort gate)” value was “high polyreactivity”.

In the case of “QFQLVESGGGLVQAGGSLRLSCAASGITFYGNAKGWYRQAPGKVREFVAAITVDGGSTYAVSVKGRFTISRDNAKNTVYLQMNSLKPEDTAVYYCNKAYLRRSLKSGYPYDSWGQGTQVTVSS”, the “polyreactivity (PSR sort gate)” value is listed as “low polyreactivity”.

In the case of “QVQLVESGGGLVQAGGRLRLSCAASGLIFRTYTMVWYRQAPGKERELVATITRRGGTTYYADSVKGRFTISRDNAKNTVYLQMNSLKPEDTAVYYCAAKSAYHGLVGGYYYWGQGTQVTVSS”, the “polyreactivity (PSR sort gate)” value is “high polyreactivity”.

Consider “QVQLVESGGGLVQAGGSLRISCAASGFIFGTNAKGWYRQAPGKERELVAAINCRGGGTYYADSVKGRFTISRDNAKYTVYLEMNSLKPEDTAVYYCAASRFDYWGQGTQVTVSS”, for which the “polyreactivity (PSR sort gate)” value is on record as “low polyreactivity”.

Consider “QVPLVESGGGLVQAGGSLRLSCAACGFIFGSYSMGWYRQAPGKERELVAAITSDGNTDYADSVKGRFTISRDNAKNTVYLQMNSLKPEDTAVYYCATDWVDHYDYWGQGTQVTVSS”, for which the “polyreactivity (PSR sort gate)” value was “low polyreactivity”.

“QVQLVESGGGLVQAGGSLRLSCAASGSILVYNAMGWYRQAPGKERELVAAISNTGRTYYAVSVKGRFTISRDIAKNTVYVQMNSLKPEDTAVYYCAAARTSTGSYRYEYWGQGTQGTVSS”: the “polyreactivity (PSR sort gate)” value was “high polyreactivity”.

For the sequence “QVQLVESGGGLVQAGGSLRLSCAATGITFVYNAMGWYRQAPGKERELVAAISWSGTSTYYADSVKGRFTISRDNAKNTVYLQMNSLKPEDTAVYDCSAQSGYPPYGYYYWGQGTQVTVSS”, the “polyreactivity (PSR sort gate)” value is given as “low polyreactivity”.

For “QVQLVESGGGLVQAGGSLRLSCAASASTTYYAMGWYRQAPGKERELVAAISFSGGSTFYADSVKGRFTISRDNAKNTVYLQMNCLKPEDTGVYYCATQEGPHKLDPRGYYWGQGTQVTVSS”, the “polyreactivity (PSR sort gate)” value is “low polyreactivity”.
